Laboratory results as given in patent publication US20080313769A9, “EPSP synthase domains conferring glyphosate resistance” (Athenix Corporation, priority 2006, published 2008).

Columns and labels:
E. coli cells = experiment: Growth of E. coli expressing EPSP synthase genes on M63 agar medium containing glyphosate; format: cell-based; conditions: for Glyphosate resistance conferred by expression in E. coli (summary in words): M63 agar, various concentrations of glyphosate, vs pAX701 glyphosate-sensitive control
Description: The coding sequence of the Clostridium acetobutylicum EPSP synthase gene (SEQ ID NO:5), identified in Genbank accession number NC—003030, was PCR amplified using the following primers: […] (upper) (SEQ ID NO:42) and […] (lower) (SEQ ID NO:43). The upper primer changed the start codon to ATG from TTG, as it naturally occurs. The resultant 1.3 kb product was digested with BamH I and Asc I, and ligated into the same sites of a modified version of pUC 18 and transformed into the E. coli strain DH5a. A positive clone containing the EPSP synthase insert was identified by restriction digest and named pAX714. A pAX714 colony was struck onto minimal M63 media containing IPTG, carbenicillin and 0, 20, 50 or 100 mM glyphosate, and the plates were incubated at 37° C. […] The encoded EPSP synthase (SEQ ID NO:6) was named grg10.
(§1) Plasmids pAX714 and pAX716, containing grg10 and grg20, respectively, were transformed into E. coli cells and streaked onto M63 agar medium containing IPTG, carbenicillin, and various concentrations of glyphosate. Colonies of pAX701 (containing the wild-type E. coli aroA gene) were used as glyphosate-sensitive controls.
as §1, with “pAX723” for “pAX714”, “pAX72^4,” for “pAX716,”, “grg21” for “grg10”, “grg22,” for “grg20,”

bacteria and plants = conditions: statement referring to earlier patent applications; cited from earlier work

B1: grg22: EPSP synthase of Methanopyrus kandleri (SEQ ID NO:10), synthetic gene in plasmid pAX724 (protein, listed as Methanopyrus kanleri)
chain: MKRVELEGIPEVRGTVCPPPSKSGSHRALIAASLCDGSTELWNVLDAEDVRATLRLCRMLGAEVDVDGEERLEATVSGFGDSPRAPEDVVDCGNSGTTLRLGCGLAALVEGTTILTGDDSLRSRPVGDLLAALRSLGVDARGRVVRGEEYPPVVISGRPLRERVAVYGDVSSQFVSALLFLGAGLGALRVDVVGDLRSRPYVDMTVETLERFGVSVVREGSSFEVEGRPRSPGKLRVENDWSSAGYFVALGAIGGEMRIEGVDLDSSHPDRRIVEITREMGAEVRRIDGGIVVRSTGRLEGVEVDLSDSPDLVPTVAAMACFAEGVTRIENVGHLRYKEVDRLRALAAELPKFGVEVREGKDWLEIVGGEPVGARVDSRGDHRMAMALAVVGAFARGKTVVERADAVSISYPRFWEDLASVGVPVHSV
Glyphosate resistance conferred by expression in E. coli (summary in words) (E. coli cells): confers resistance to high levels of glyphosate

B2: grg20: EPSP synthase of Sulfolobus solfataricus (SEQ ID NO:12), expressed from plasmid pAX716 (protein, listed as Solfolobus solfataricus)
chain: MIVKIYPSKISGIIKAPQSKSLAIRLIFLSLFTRVYLHNLVLSEDVIDAIKSVRALGVKVKNNSEFIPPEKLEIKERFIKLKGSATTLRMLIPILAAIGGEVTIDADESLRRRPLNRIVQALSNYGISFSSYSLPLTITGKLSSNEIKISGDESSQYISGLIYALHILNGGSIEILPPISSKSYILLTIDLFKRFGSDVKFYGSKIHVNPNNLVEFQGEVAGDYGLASFYALSALVSGGGITITNLWEPKEYFGDHSIVKIFSEMGASSEYKDGRWFVKAKDKYSPIKIDIDDAPDLAMTIAGLSAIAEGTSEIIGIERLRIKESDRIESIRKILGLYGVGSEVKYNSILIFGINKGMLNSPVTDCLNDHRVAMMSSALALVNGGVITSAECVGKSNPNYWQDLLSLNAKISIE
Glyphosate resistance conferred by expression in E. coli (summary in words) (E. coli cells): confers resistance to high levels of glyphosate

B3: grg10: EPSP synthase of Clostridium acetobutylicum (SEQ ID NO:6), expressed from plasmid pAX714 (protein, listed as Clostridium acetobutylicum)
chain: MNCVKINPCCLKGDIKIPPSKSLGHRAIICAALSEEESTIENISYSKDIKATCIGMSKLGALIIEDAKDNSTLKIKKQKLVSKEKVYIDCSESGSTVRFLIPISLIEERNVVFDGQGKLSYRPLDSYFNIFDEKEIAYSHPEGKVLPLQIKGRLKAGMFNLPGNISSQFISGLMFSLPFLEGDSIINITTNLESVGYVDMTIDMLKKFGIEIENKAYKSFFIKGNQKCKGTKYKVEGDFSQAAFWLSAGILNGNINCKDLNISSLQGDKVILDILKKMGGAIDEKSFSSKKSHTHGIVIDASQCPDLVPILSVVAALSEGTTKIVNAARLRIKESDRLKAMATELNKLGAEVVELEDGLLIEGKEKLKGGEVESWNDHRIAMALGIAALRCEESVTINGSECVSKSYPQFWSDLKQLGGDVHEWSLGE
Glyphosate concentration to which the encoded EPSP synthase is resistant (E. coli cells; E. coli DH5a on minimal M63 media, 37° C.): at least 100 mM
Glyphosate resistance conferred by expression in E. coli (summary in words) (E. coli cells): confers resistance to high levels of glyphosate
Growth of pAX714-containing cells on glyphosate (E. coli cells; minimal M63 media with IPTG, carbenicillin and 0, 20, 50 or 100 mM glyphosate, 37° C.): grew very well on all concentrations of glyphosate tested

B4: GRG1: EPSP synthase (SEQ ID NO:2) that confers glyphosate resistance, from U.S. application 10/739,610 (protein, listed as Enterobacteriaceae sp.)
chain: VKVTIQPGDLTGIIQSPASKSSMQRACAAALVAKGISEIINPGHSNDDKAARDIVSRLGARLEDQPDGSLQITSEGVKPVAPFIDCGESGLSIRMFTPIVALSKEEVTIKGSGSLVTRPMDFFDEILPHLGVKVKSNQGKLPLVIQGPLKPADVTVDGSLSSQFLTGLLLAYAAADASDVAIKVTNLKSRPYIDLTLDVMKRFGLKTPENRNYEEFYFKAGNVYDETKMQRYTVEGDWSGGAFLLVAGAIAGPITVRGLDIASTQADKAIVQALMSANAGIAIDAKEIKLHPADLNAFEFDATDCPDLFPPLVALASYCKGETKIKGVSRLAHKESDRGLTLQDEFGKMGVEIHLEGDLMRVIGGKGVKGAEVSSRHDHRIAMACAVAALKAVGETTIEHAEAVNKSYPDFYSDLKQLGGVVSLNHQFNFS
Glyphosate resistance or tolerance conferred on organisms (in words) (bacteria and plants): confers glyphosate resistance upon both bacteria and plants

B5: grg21: EPSP synthase of Fusobacterium nucleatum (SEQ ID NO:8), synthetic gene in plasmid pAX723 (protein, listed as Fusobacterium nucleatum)
chain: MRNMNKKIIKADKLVGEVTPPPSKSVLHRYIIASSLAKGISKIENISYSDDIIATIEAMKKLGANIEKKDNYLLIDGSKTFDKEYLNNDSEIDCNESGSTLRFLFPLSIVKENKILFKGKGKLFKRPLSPYFENFDKYQIKCSSINENKILLDGELKSGVYEIDGNISSQFITGLLFSLPLLNGNSKIIIKGKLESSSYIDITLDCLNKFGINIINNSYKEFIIEGNQTYKSGNYQVEADYSQVAFFLVANSIGSNIKINGLNVNSLQGDKKIIDFISEIDNWTKNEKLILDGSETPDIIPILSLKACISKKEIEIVNIARLRIKESDRLSATVQELSKLGFDLIEKEDSILINSRKNFNEISNNSPISLSSHSDHRIAMTVAIASTCYEGEIILDNLDCVKKSYPNFWEVFLSLGGKIYEYLG
Glyphosate resistance conferred by expression in E. coli (summary in words) (E. coli cells): confers resistance to high levels of glyphosate

B6: GRG23: EPSP synthase (SEQ ID NO:14) isolated from a bacterial strain exhibiting strong glyphosate resistance (protein, listed as Arthrobacter globiformis)
chain: MALERGQHGRSRRLFGASLERITMETDRLVIPGSKSITNRALLLAAAAKGTSVLVRPLVSADTSAFKTAIQALGANVSADGDNWVVEGLGQAPHLDADIWCEDAGTVARFLPPFVAAGQGKFTVDGSEQLRRRPLRPLVDGIRHLGARVSSEQLPLTIEASGLAGGEYEIEAHQSSQFASGLIMAAPYARQGLRVRIPNPVSQPYLTMTLRMMRDFGLETSTDGATVSVPPGRYTARRYEIEPDASTASYFAAASAVSGRSFEFQGLGTDSIQGDTSFFNVLGRLGAEVHWAPNSVTISGPERLNGDIEVDMGEISDTFMTLAAIAPLADGPITITNIGHARLKESDRISAMETNLRTLGVQTDVGHDWMRIYPSTPHGGRVNCHRDHRIAMAFSILGLRVDGITLDDPQCVGKTFPGFFDYLGRLFPEKALTLPG
modifications: VARIANT (0)...(0) Strain ATX21308
Glyphosate resistance or tolerance conferred on organisms (in words) (bacteria and plants): confers glyphosate tolerance
